Laboratory results published in the supplement of paper PMC9170038.

Legend:
MS2 coat protein [1] = experiment: apparent KD of MS2 coat protein; higher = weaker reporter binding; conditions: Eterna round: R101
Experimental: (§1)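 RNA-MaP: designed FMN/MS2 RNA switches (84 nt design region) are transcribed on-chip within common flanks and titrated with SNAP-549-labelled MS2 coat protein (about 1-3000 nM) in 100 mM Tris pH 7.5, 80 mM KCl, 4 mM MgCl2, without or with 200 uM FMN. Median apparent KD per design; activation ratio = KD,OFF / KD,ON.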

MS2 coat protein [2] = experiment: apparent KD of MS2 coat protein; designed switch direction (-1 OFF switch, 1 ON switch): -1; higher = weaker reporter binding; conditions: Eterna round: R98
Experimental: as §1

Row | Sequence | apparent KD of MS2 coat protein (MS2 coat protein [1]; input ligand: FMN 200 uM) [nM] | apparent KD of MS2 coat protein (MS2 coat protein [1]; input ligand: none) [nM] | apparent KD of MS2 coat protein (MS2 coat protein [2]; input ligand: FMN 200 uM) [nM] | apparent KD of MS2 coat protein (MS2 coat protein [2]; input ligand: none) [nM]
1 | ACAGGUCGUGAGAAGGCGUGUGGCACCGUCGAAAGACGGUGCAAUUAAGAUCUUCGAGGAUCACCCGAGGAUAUCACGACCUGA [#SharedSequence - IExNG2: 18] (puzzle (switch architecture): Inverted Exclusion NG 2) | 70.4 | 18.6 | – | –
2 | ACCAUUUACUAAUCCUCUAUACAUGAGGAUCACCCAUGUUCUGAGGAUAUCAUCGUUCGCCGCGUUGAGAAGGCAGAGCAUUCG [AriestionMod 1 - Jieux - Exclusion NG 3] | – | – | 40.8 | 26.8
3 | AGGAGAAAUGUAGGAUAUGGGCGGGCGUACGGGCAAAGCGCGUACGCCCGCCCAGAAGGACAUGAGGAUCACCCAUGUUUCCCU [#Lowering the energy 1] (puzzle (switch architecture): Small Loop Exclusion NG 1) | 16 | 14.5 | – | –
4 | AGGCAGCACUGCUACGUGGCCUCACAUGAGGAUCACCCAUGUAAGGAUAUCGGGUAGCAUUACCACGAGAAGGUACAUAAGAGG [Ceisle] (puzzle (switch architecture): Exclusion NG 3) | 25.8 | 15 | – | –
5 | CCUGCACCUCAAGGAUAUCCAGUCGAAACGACUGGAGAAGGUGAGGAUCACCCACCUAGCCUGACGAAAGUCAGGCAUGCAGGA [#SharedSequence - ExNG1-1] (puzzle (switch architecture): Exclusion NG 1) | 32.8 | – | – | –
6 | GAGGACUGUAAUAAUGUAGAAAUACAUGAGGAUCACCCAUGUAAGGAUAUCGUCAGGAAUACUGACGAGAAGGUACAUCAGUCC [Exclusion NG 3/10-A2] | – | – | 24.8 | 17.3
7 | GGUCGACUUCAAGGAUAUGGACUGCUUUGCAGUCCAGAAGGUGAGGAUCACCCAUCUACGGUCAGGUUUCUGACCGAUCGACCU [#AddUracilToBrourdLoops 8 - Jieux - Exclusion NG1] (puzzle (switch architecture): Exclusion NG 1) | 102 | 73.4 | – | –
8 | GGUCGUCACAUAUACAUGAGGAUCACCCAUGUCAAAAGACAUGAGGAUAUGGAUCCUAAUUGGAUCCAGAAGGCAUGGACGACC [#HiddenHairpinInALoop - Mat - Same State NG 3 - JL Mod - D11] (puzzle (switch architecture): Same State NG 3) | 21.4 | 412 | – | –
9 | GGUUGUUACGCAGGAUAUUGCCAACAGGCAGUAGGAUAUCCGAAAGGAGAAGGAUCGCCAACAGGCGAGAAGGGCGGGUUAACC [pwkr exNG2 2xF7 2FMN.10.5] | – | – | 121 | 1240
10 | GUCACGAAUGUAGGAUAUCGAGUGGAAUACACUCGAGAAGGACAUGAGGAUCACCCAUGUAAAAUGAAAGAUAAUAAACGUGAC [Exclsuion NG 1/2-B1] | – | – | 51.7 | 18
11 | UAUAAUCUUUAAGGAUAUGACUCCGUUUCGGAGUCAGAAGGUGAGGAUCACCCACCUAGCUCAGGGUCGUUUGACCCUGAGCAU [#AddUracilToBrourdLoops 9 - Jieux - Exclusion NG1] (puzzle (switch architecture): Exclusion NG 1) | 10.6 | 8.87 | – | –
12 | UAUAUAAUUAAGAGCUGGUCCAAAACAUGAGGAUCACCCAUGUAGGAUAUCAGCACGAUAAGUGCUGAGAAGGACAACCAGCUC [Denovo 85] | – | – | 15.2 | 17.2
13 | UAUAUAUAGGCAGGAUAUACAUGUAUAUAUAAUAUAUUAUAUAUUAUUACAUGAGGAUCACCCAUGUAGAAGGGCCAUAAUAUA [LRO035_Exclusion NG 2] | – | – | 52.7 | 30
14 | UCGACGAAAGUCGAACGAUGUAGCAGAAGGACAUGAGGAUCACCCAUGUCAGCUGUAACAGCCAUGUAGGAUAUGCUACAUCGG [salish99_ISLExNG3_007 #endbits investigation] (puzzle (switch architecture): Inverted Small Loop Exclusion NG 3) | – | 4.42 | – | –
15 | UCGGCCCGGGAGAAGGACAUGAGGAUCACCCAUGUCGCCGGGCCCGGGAAACCGGGCCCGGCCAUGUAGGAUAUCCCGGGCCGA [#This is a good prank 2] (puzzle (switch architecture): Inverted Exclusion NG 2) | 4.79 | 4.59 | – | –
16 | UGUCGGAGCAGAGGAUAUUACAUGAGGAUCACCCAUGUAUGAACCAAUAGCUGGAAACAGCAAUGUAAGAAGGCUGCUCCGACA (puzzle (switch architecture): Exclusion NG 2) | 177 | 12.3 | – | –
17 | UUAUUUUUACAGAAGGUUUAAUAAUAUAUAAGAGAAGGAUAUGUAACAUGAGGAUCACCCAUGUUUCACCCAUAUGAGGAUCAU [Astosinvert#10] (puzzle (switch architecture): Inverted Exclusion NG 1) | 7.94 | 8.28 | – | –
18 | UUCUGUGCCCAAAGUUAAAGCACAUGAGGAUCACCCAUGUGAAAGGAUAUGUGGCAUGUAAUGUUAUAGAAGGUUCACAAUCAA [Reveention] | – | – | 22.8 | 14.2
